In paper PMC3753634:

T1: LtrC (phage phi55 ORF34) (Staphylococcus aureus phage phi55, UniProt Q4ZB49 1-133)
T1 sequence: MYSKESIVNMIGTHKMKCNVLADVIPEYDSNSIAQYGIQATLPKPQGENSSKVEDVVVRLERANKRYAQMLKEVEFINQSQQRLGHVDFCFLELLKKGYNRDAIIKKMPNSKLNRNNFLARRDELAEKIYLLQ

T2: ArpU (phage phiFL2A late transcriptional regulator) (Enterococcus faecalis phage phiFL2A, UniProt D2IZF3 1-155)
T2 sequence: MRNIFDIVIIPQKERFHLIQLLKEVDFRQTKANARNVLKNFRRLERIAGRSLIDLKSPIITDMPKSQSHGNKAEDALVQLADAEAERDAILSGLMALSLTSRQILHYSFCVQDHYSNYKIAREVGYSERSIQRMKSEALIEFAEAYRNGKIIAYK

B1: LtrC wt probe (phi55 repeat region, ORF34wt) (dsDNA)
DNA 1: TTGGCAGAAAAGATTTATCTACTACAGTGACGAAAATGACAAAATGACAGAAATGACGAAAATGACACTATTTTTAAACTGTGAATTAATTTTATATA
DNA 2: TATATAAAATTAATTCACAGTTTAAAAATAGTGTCATTTTCGTCATTTCTGTCATTTTGTCATTTTCGTCACTGTAGTAGATAAATCTTTTCTGCCAA
B2: ArpU wt probe (phiFL2A repeat region) (dsDNA)
DNA 1: TAATTTTGGCGGTTTTTGGCGGAAAGTTGGCGGTTTTATACGAATTTGAGTGCTAATATAGTAATATCGAAAG
DNA 2: CTTTCGATATTACTATATTAGCACTCAAATTCGTATAAAAACCGCCAACTTTCCGCCAAAAAACCGCAAAATTA

Columns and labels:
[1] = target: T1, LtrC (phage phi55 ORF34); experiment: EMSA
[2] = target: T2, ArpU (phage phiFL2A late …); experiment: EMSA

Binder	binding result [1]	binding result [2]
B1	binds	
B2		binds
